Source: patent US20250333541A1, “ANTIBODY, AND DRUG CONJUGATE AND USE THEREOF” (EVOPOINT BIOSCIENCES CO., LTD., priority 2022, published 2025)
Positions count from the first letter of the chain named.

B1: 2B12B10-hz1 (antibody, human IgG1, kappa, V domains shown)
VH: EVQLVESGGGLVQPGGSLRLSCAASGFAFSDSGMHWVRQAPGKGLEWVAYISRDSNTIYYADSVKGRFTISRDNAKNSLYLQMNSLRAEDTAVYYCGRRYYGDYFDYWGQGTLVTVSS
VL: DIVLTQSPATLSLSPGERATLSCRASQRVTNYLHWYQQKPGQSPRLLIKYASQSISGIPARFSGSGSGTDFTLTISSLEPEDFAVYFCQQSYNWPLTFGQGTKVEIKR
notes: Humanized IgG1 kappa
B2: 30G11B7-hz1 (antibody, human IgG1, kappa, V domains shown)
VH: B1 VH with Q13K, A28T, S32Y, H35F, D54G, N56T, Y95F, G97T
VL: EIVLTQSPDFQSVTPKEKVTITCRASQSISNYLHWYQQKPDQSPKLLIKYASQSISGVPSRFSGSGSGTDFTLTINSLEAEDAATYFCQQSYNWPLTFGQGTKVEIKR
notes: Humanized IgG1 kappa
B3: 2B12B10-hz1-B81 (antibody, human IgG1, kappa, V domains shown)
VH: B1 VH
VL: B1 VL
modifications: drug-linker DL-01 (B81) on cysteine sulfhydryl group; prepared by the TF-ADC (DAR8) method (1 toxin molecule per light chain); drug-linker DL-01 (B81) on cysteine sulfhydryl groups; prepared by the TF-ADC (DAR8) method (3 toxin molecules per heavy chain)
notes: also called 2B12B10-B81
B4: 30G11B7-hz1-B81 (antibody, human IgG1, kappa, V domains shown)
VH: B1 VH with Q13K, A28T, S32Y, H35F, D54G, N56T, Y95F, G97T
VL: B2 VL
modifications: drug-linker DL-01 (B81) on cysteine sulfhydryl group; prepared by the TF-ADC (DAR8) method (1 toxin molecule per light chain); drug-linker DL-01 (B81) on cysteine sulfhydryl groups; prepared by the TF-ADC (DAR8) method (3 toxin molecules per heavy chain)
B5: 27H8H3-hz1-B81 (antibody, human IgG1, kappa, V domains shown)
VH: QVQLVQSGAEVKKPGASVKVSCKASGYTFTTYWMHWVRQAPGQGLEWMGMIDPSDSYTSYAQKFQGRVTLTVDTSTSTAYMELSSLRSEDTAVYYCTRGSGPGLFAYWGQGTLVTVSS
VL: DIQETQSPSSLSASVGDRVTITCRASQGISNYLNWYQQKPGKAPKLLIYHTSRLHSGVPSRFSGSVSGTDFTLTISSLQPEDFATYFCQQGNTLPYTFGQGTKVEIKR
modifications: drug-linker DL-01 (B81) on cysteine sulfhydryl group; prepared by the TF-ADC (DAR8) method (1 toxin molecule per light chain); drug-linker DL-01 (B81) on cysteine sulfhydryl groups; prepared by the TF-ADC (DAR8) method (3 toxin molecules per heavy chain)
B6: 22F11H5-hz1-B81 (antibody, human IgG1, kappa, V domains shown)
VH: B5 VH with K13Q, S59T, T97A
VL: B5 VL with G28D, S30R, H55Q, V66G, F71Y, F87Y, T93M, L94P
modifications: drug-linker DL-01 (B81) on cysteine sulfhydryl group; prepared by the TF-ADC (DAR8) method (1 toxin molecule per light chain); drug-linker DL-01 (B81) on cysteine sulfhydryl groups; prepared by the TF-ADC (DAR8) method (3 toxin molecules per heavy chain)

Legend:
[1] = target: T1, tissue factor (TF) on the surface of TF-positive tumor cells (human, UniProt P13726 33-295); assay: cell-based or functional assay
[2] = target: T1, tissue factor (TF) on the surface of …; assay: cell-based or functional assay; remark: listed apart in the source
[3] = target: T1, tissue factor (TF) on the surface of …; assay: cell-based or functional assay; remark: listed apart in the source
[4] = target: T1, tissue factor (TF) on the surface of …; assay: flow cytometry on KYSE520 cells
Description: (§1) A TF low/medium-expressing cell line NCI-H358 (source: Nanjing Cobioer, CBP60136) and a TF high-expressing cell line KYSE520 (source: Nanjing Cobioer, CBP60658) were digested with trypsin, collected by centrifugation, and washed three times with pre-cooled PBS. The cells were resuspended in 1% BSA and seeded into a 96-well sharp-bottom plate at 3×10⁵ cells/well. Each of the antibodies obtained by the gradient dilution was added, and the plate was incubated at 4° C. for 1 h. The cells were washed three times with pre-cooled PBS. 1 μL of anti-human fluorescent secondary antibody (APC anti-human IgG Fc Antibody, Biolegend, 410712) was added to each well, and the plate was incubated at 4° C. for 0.5 h. The cells were washed three times with pre-cooled PBS, resuspended, and detected by a flow cytometer (Sony, LE-SA3800GA). The data were imported into GraphPad software for curve fitting.

[5] = target: T1, tissue factor (TF) on the surface of …; assay: flow cytometry on NCI-H358 cells
Description: as §1

cynomolgus monkey TF-His [6] = target: T2, cynomolgus monkey TF-His (cynomolgus monkey, UniProt A0A2K5VX02 33-253); assay: ELISA, plate coated with c.TF-His
T2 construct: range 33-252; Recombinant extracellular segment expressed in HEK293-EBNA cells and purified on a nickel column; also called c.TF-His; c; TF-his; not shown: His tag from vector pTT5-His
T2 sequence: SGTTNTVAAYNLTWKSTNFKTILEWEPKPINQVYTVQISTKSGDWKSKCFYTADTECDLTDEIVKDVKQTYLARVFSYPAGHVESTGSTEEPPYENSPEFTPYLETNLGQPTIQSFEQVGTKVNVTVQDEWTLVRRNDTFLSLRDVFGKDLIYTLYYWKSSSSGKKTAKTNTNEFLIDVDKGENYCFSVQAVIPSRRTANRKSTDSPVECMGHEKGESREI
Description: (§2) The ELISA plate was coated overnight with TF antigen (h.TF-His or c.TF-His antigen) in 50 mM carbonate coating buffer (CBS coating solution) at a coating concentration of 1 μg/mL in a volume of 100 μL at 4° C. The next day, the coating solution was removed, each well was washed once with 300 μL of PBS, and 100 μL of 2% BSA (Biotopped, A6020) in PBS was added to each well for blocking at 37° C. for 2 h. The test sample was subjected to a gradient dilution with 2% BSA in PBS to establish 11 concentration points. 100 μL of each of the samples obtained by the gradient dilution was added to the plate, and the plate was incubated at 37° C. for 2 h. The supernatant was removed, and each well was washed three times with 300 μL of PBST. 100 μL of HRP-conjugated secondary antibody in 2% BSA was added to each well, and the plate was incubated at 37° C. for 1 h. […] At the end of the incubation, the secondary antibody was removed, each well was washed five times with 300 μL of PBST, and 100 μL of TMB substrate (Huzhou InnoReagents Co., Ltd., TMB-S-004) was added to each well for color development for 5-20 min. 50 μL of 2 N HCl was added to each well to stop the reaction, and OD450 nm values were read using a microplate reader (manufacturer: MD, model: SpectraMax) and imported into GraphPad software for fitting and plotting to determine the binding of the samples to TF antigenic proteins.
(§3) The assay was performed as described in the general methods. Briefly, an ELISA plate coated with a human TF-his protein or a cynomolgus monkey TF-his protein was blocked with 2% BSA at 37° C. for 2 h, and each of the antibodies obtained by the gradient dilution (starting at 10 μg/mL, 3-fold graded dilution, 11 concentration points) was added. The plate was incubated at 37° C. for 2 h.

human TF-His [7] = target: T3, human TF-His (human, UniProt P13726 33-251); assay: ELISA, plate coated with h.TF-His
T3 construct: range 33-251; Recombinant extracellular segment expressed in HEK293-EBNA cells and purified on a nickel column; also called h.TF-His; h; TF-his; not shown: His tag from vector pTT5-His
Description: as §2, §3

[8] = target: T1, tissue factor (TF) on the surface of …; assay: cell ELISA on fixed NCI-H358 cells
Description: TF antigen-positive cells (MDA-MB-231 or NCI-H358 cells) were seeded into a 96-well plate at 5×10⁴ cells/well one day prior to the experiment. On the day of the experiment, the culture supernatant was removed, each well was washed once with 300 μL of PBS, and 100 μL of 4% paraformaldehyde was added to each well for immobilization at room temperature for 20 min. The paraformaldehyde was removed, and each well was washed twice with 300 μL of PBS, and 100 μL of 2% BSA in PBS was added to each well for blocking at 37° C. for 2 h. After the blocking was completed, 30 μL of the test sample (hybridoma supernatant or purified antibody) was added to each well and the plate was incubated at 37° C. for 2 h. The liquid was removed, and each well was washed three times with 300 μL of PBST. 100 μL of HRP-conjugated secondary antibody in 2% BSA was added to each well, and the plate was incubated at 37° C. for 1 h. […] The secondary antibody was removed, each well was washed five times with 300 μL of PBST, and 100 μL of TMB substrate (Huzhou InnoReagents Co., Ltd., TMB-S-004) was added to each well for color development for 5-20 min. 50 μL of 2 N HCl was added to each well to stop the reaction, and OD450 nm values were read using a microplate reader (manufacturer: MD, model: SpectraMax) to determine the binding of the samples to TF-positive cells.
The assay was performed as described in the general methods. Briefly, TF antigen-positive NCI-H358 cells were digested with trypsin, collected, seeded into a 96-well plate at 5×10⁴ cells/well and incubated overnight, and then immobilized with 4% paraformaldehyde. After the paraformaldehyde was removed and the cells were washed with PBS, the plate was blocked with 2% BSA at 37° C. for 2 h. Each of the antibodies obtained by the gradient dilution (starting at 10 μg/mL, 3-fold graded dilution, 11 concentration points) was added. The plate was incubated at 37° C. for 2 h.

human TF-His [9] = target: T3, human TF-His; assay: BLI (ForteBio Octet), antibody on ProA sensor, TF-His as analyte
Description: (§4) The dynamic affinity of the humanized antibodies was determined by ForteBio. The experimental procedures were as follows: a ProA sensor (18-5010, Octet) was taken out and pre-wetted with a PBST diluent (pH 7.4) for 10 min. The antibodies to be immobilized were diluted to 5 μg/mL. […] The program was set up, the sensor plate and sample plate were put in, then the program started. The sensor was regenerated with 20 mM glycine solution (pH 1.7). The data were analyzed using Octet analysis software to derive a result graph.

cynomolgus monkey TF-His [10] = target: T2, cynomolgus monkey TF-His; assay: as above
Description: as §4

human TF-His [11] = target: T3, human TF-His; assay: antigenic protein-based ELISA, before conjugation (TF antigen species not stated)
Description: as §2

human TF-His [12] = target: T3, human TF-His; assay: antigenic protein-based ELISA, after conjugation with B81 (TF antigen species not stated)
Description: as §2

Binder | Endocytosis rate (%) on NCI-H358 cells, 2 h [1] [%] | Endocytosis rate (%) on NCI-H358 cells, 4 h [1] [%] | IC50 (ng/mL), inhibition of FVIIa-induced IL-8 release by MDA-MB-231 cells [2] [ng/mL] | Maximum inhibition rate (%), FVIIa-induced IL-8 release by MDA-MB-231 cells [2] [%] | coagulation time V50 (s), MDA-MB-231 cells + human plasma, 2 mM Ca2+, 50 µg/mL antibody [3] [s] | coagulation time V50 (s), MDA-MB-231 cells + human plasma, 5 mM Ca2+, 20 µg/mL antibody [3] [s] | EC50 [4] [ng/mL] | EC50 [5] [ng/mL] | EC50 (cynomolgus monkey TF-His [6]) [ng/mL] | EC50 (human TF-His [7]) [ng/mL] | EC50 [8] [ng/mL] | Kd (human TF-His [9]) [nM] | koff (human TF-His [9]) [s⁻¹] | kon (human TF-His [9]) [M⁻¹ s⁻¹] | Kd (cynomolgus monkey TF-His [10]) [nM] | koff (cynomolgus monkey TF-His [10]) [s⁻¹] | kon (cynomolgus monkey TF-His [10]) [M⁻¹ s⁻¹] | EC50 (human TF-His [11]) [ng/mL] | EC50 (human TF-His [12]) [ng/mL]
B1 | 34.3 | 49.6 | 128 | 94.1 | 882 | 24.2 | 140 | 187 | 13.6 | 6.72 | 3.88 | 13.8 | 0.00289 | 209000 | 33.8 | 0.0116 | 344000 | 6.65 | 
B2 | 19.8 | 46.1 | 129 | 100 | 1450 | 29.2 | 138 | 145 | 20.8 | 7.91 | 4.73 | 25.8 | 0.00506 | 197000 | 146 | 0.053 | 364000 | 7.68 | 
B3 |  |  |  |  |  |  |  |  |  |  |  |  |  |  |  |  |  |  | 3.76
B4 |  |  |  |  |  |  |  |  |  |  |  |  |  |  |  |  |  |  | 7.75
B5 |  |  |  |  |  |  |  |  |  |  |  |  |  |  |  |  |  |  | 3.43
B6 |  |  |  |  |  |  |  |  |  |  |  |  |  |  |  |  |  |  | 8.83
